Experiment: yeast display, Sf9 membrane polyspecificity reagent, FACS + sequencing; frameworks hold sequencing errors
Procedure, shortened: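 A nanobody's polyreactivity label depends on the gate it was sorted from. Yeast display cells were stained with 10% biotinylated, detergent-solubilized Sf9 membrane reagent for 1 hour at 4 °C, enriched on streptavidin microbeads and sorted by FACS. The low and high (top ~1%) gates were set on anti-HA fluorescence for expression and streptavidin fluorescence for reagent binding.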

Row | Sequence | polyreactivity (PSR sort gate)
1 | QVQLVESGGGLFQAGGSLRLSCAASGSTFLIYAMGWYRQAPGKERELVATIRSGGASTNYADSVKGRFTISRDNAKNTVYLQMNSLKPEDTAVYYCPARCWTWTYQSSYVYWGQGTQVTVSS | low polyreactivity
2 | QVQVVESGGGLLQAGGSLRLSCASSGSTFQYNAMGRYRPAPRKERELVAVITRRGGRTYYADSVKGRFTISRDNAKNTVYLQMNSLKPEDTAVYYCAAYYDYTHRFYYWGQGTQVTVSS | high polyreactivity
3 | QVQLEESGGGLVQAGGSLRLSCAASGLTFDPYAMGWSRQAPGKERELVAVITSRTGSTYYADSVKGRFTISRDNAKNTVYLQMNSLKPEDTAVYYCAAEIYYYGMYGYDYWGQGTQVTVSS | high polyreactivity
4 | QVQLVESGGGLVQAGGSLRLSCAASGSTIYTYAMGWYRPAPGKERELVAAISYRAGSTYYADSVKGRFTISRDNAKTSVYFQMNSLTPEDTAVYYCNVDGVVVGTKRGGYDYWGQGTQVTVSS | low polyreactivity
5 | QLQLVESGGGLVQAGGSLRLSCAASGLIFTYYAMGWYRQAPGKERELVAAISGRGGSTYYADSVKGRFTISRDSAMKTVYLQMNSLNPEDTAVYYCAAVRWAGYVSDYGYWGQGTQVTVSS | high polyreactivity
6 | QVQLVESGGGLVQAGGSLRLSCAASGSTFGPNAMGWYRQAPGKERELVAAIRSQGGRTYYAYSVKGRFTISRDNAKNSVYLQMNSLIPEDTAVYYCGDPHYPYDTPYGYWGQGTQVTVSS | low polyreactivity
7 | QVQLVESGGGLVQAGGSLRLSCAASGSIFSYYVMGWYRQAPGKERELVAAITSSGGSTYYADSVKGRFTISRDNAKNTVYLQMNSLKTEDTAVYYCAAYQRSQDRSYPGYEYWGQGTQVTVSS | high polyreactivity
8 | QVQLVESGGGLVQAGGSLRLSCAASGSTFYDYAMGWYRQAPGKERELVASISISGGSTYADSVKRRFTISRDNAKNTVYLQMNSLKPEDTAVYYCNAKNYSWDDYDWVPDYEYWGQGTQVTVSS | low polyreactivity
9 | QVQLVESGGGLVQAGGSLRLSCAASGSTFYAYAMGWYRQAPGKERELVAAISSSGGSTYYADSVKGRFTISRDNAKNTVYLQMNSLKPEDTAVYYCAAYDSVQKYWILGFDYWGQGTQVTVSS | low polyreactivity
10 | QVQLVESGGGLVQAGGSLRLSCAASGFTFPSNAMGWYRQAPGKERELVAAISSTDSTNYADSVKGRFTISRDNAKNTVYFQMNSLKPEDTAVYYCAKRYPRYRYNTRGNDYWGQGTQVTVSS | low polyreactivity
11 | QVQLVESGGGLVQAGGSLRLSCAASGSTFRRYAMGWYRPAPGKERELVAAISTRGGSTYYADSVKGRFTISRDNAKNTVYLQMNSLKPEDTAVYYCAADEPKYTSSSSRRYGYWGQGTQVTVSS | high polyreactivity
12 | QDQLVESGGGLVQAGGSLRLSCAASGFIFALYAMGWYRQAPGKERELVAAINWSGGRTYYADSVKGRFTISRDNAKNTVYLQMNSLKPEDTAVYYCNRRAFSPYAANYYYWGQGTQVTVSS | high polyreactivity
13 | QVQLVESGGGLVQAGGSLRLSCAATGYTFFFYAMGWYRQAPGKEREFVAASTWRGDSTYYADSVKGRFTISRDNAKNTVYLQMNSLKPEDTAVYYCAADPGFTWSRRMDYWGQGTQVTVSS | low polyreactivity
14 | QVQLVESGGGLVQAGGSLRLSCAASGFISSENAMGWYRQAPGKERELVAAISSGGSTNYADSVKGRFTISRDNAKNTVYLQMNSIKREDTAVYYCAATLPGWYNEDDSWGQGTQVTVSS | low polyreactivity
15 | QVQLQESGSGLVQARGSLRLSCAASGAIFPAYLMGWYRHAPGKERELVAGISYGSITYCADSVKGRFNISRDNAKNTVYLQRNSLKPEDTAVYYCAVWRPGGDEYYYWGQGTQVTVSS | low polyreactivity
16 | QVQLVESGGGLVQAGGSLRLSCAASGSIFYWNAMGWYRQAPGKERELVAAINYSGDSTYYADSVKGRFTISRDNAKNTVYLQMNSLKPEDTAVYYCNFDYWGQGTQVTVSS | low polyreactivity
17 | QVQLVESGGGLVQAGGSLRLSCAASGSTFVTYAMGRYRQAPGTERELVAAISRRGGSTYYADSVKGRFTISRDNAKYTVYLQLNSLKPVDTAFYYCAAVQGSYSRDGADDYWGQGTQVTVSS | high polyreactivity
18 | QVQLVESGGGLVQAGGSLRLSCAASGITFILYDMGWYRQAPGKERELVAGITSGDGDSTYYADSVKGRFTISRDNAKNTVYLQMNSLKPEDTAVYYCAADFTVGYYREYYYWGQGTQVTVSS | low polyreactivity
19 | QVQLVESGGGLVQAGGSLRLSCAASGRTFVTNAMGWYRQAPGKERELVAAIRWSSDSTYYADSVKGRFTISRDNAKNTVYLQMNSLKPEDTAVYYCAKQWYVAKISYDYWGQGTQVTVST | high polyreactivity
20 | QVQLVESCGGLVQAVGSLRLSCAASGIIIGYNAIGWYILAPGKEREFVAAISGYGGSTRYADSVKGRFTISRDYGKNSVYLQMNSLKPEDTAVYYCAARSRYCYITFDYWGQGTQVTVSS | high polyreactivity
21 | QVQLVESGGGLVQAGGSLRLSCAASGRIFYPNAMGWYRPAPGKVRELVAGISRSGGSTYYADSVKGRFTLSRDNAKNTVYLQKNSLKPEDTAVYYCAARYYASDRHFRGDYWGQGTQVTVSS | low polyreactivity
22 | QVQLVESGGGLVQAGGSLSLSCDASGSTFYTYAMGWSRQEPGKERELVAAITSSGGSTYYADSVKGRFTISRDNAKNTVYLLMNSLKPEDTAVYYCAARVLGGFGFWGQGTQVTVSS | high polyreactivity

Row | Sequence | polyreactivity (PSR sort gate)
23 | QVQLVESGGGLVQAGGSLRLSCAASGSIFGYYSMGWYRQAPGKERELVASITSGDSTNYADSVKGRFTISRDNAKNTVYLQMNSLKPEDTAVDYCNTERGYYDEYDYWGQGTQVTVSS | low polyreactivity
24 | QVQLEESGGRLVQAGGSIRLTCAASGSIFASNTKGWYRQAPGKERELVAGITKIGSSTYYADSVKGRFTISRDNAKNTVYLQMNSLKPEDTAVYYCNAYGPNIYSSRYDYWGQCTQVTVSS | low polyreactivity
25 | QVQLVESGGGLVQAGGSLRLSCAASGRTFRPYPMGWYRQAPGKERELVAAITRSGGSTYYADSVKGRFTISRDNAKNTVYLQMNSLKPEDTAVYYCAAYNTYSDTYDYWGQGTQVTVSS | low polyreactivity
26 | QVQLVESGGGLVQAGGSLRLSCAASGSIFNYNAMGWYRHAPGKERELFAAITYHGGSTYYADSVKGRFTISRDNAKYTVYLQMNSLKPEDTAVYYCNALRGYRPGWFDYWGQGTQVTVSS | high polyreactivity
27 | QVQLVESGGGLVQAGGSLRLSCAASGRTSYWYAMGWYRQAPGKERELVAVISSGGSTYYADSVKGRFTISRDNAKNTVYLQMNSLKPEDTAVYYCNAVVGRWFPYNLSDYWGQGTQVTVSS | low polyreactivity
28 | QVQLVESGGGLVQAGGSLRLSCAASGRSIYGYALGWYRQATRKERELVAAIHSGGSTYYADSVKGRFTISRDNAKNTVYLQKNSLKPEDTAVYYCAGYTAYRSRAYFYYWGQGTQVTVSS | high polyreactivity
29 | QVQLVESGGGLVQAGGSLRLSCAASGRTFSSNAMGWYRQAPGKERELVATITYSGGSTYYADSVKGRFTISRDNAKNTVYLQMNSLKPEDTAVYYCAVRVSTYITKYYYWGQGTQVTVSS | low polyreactivity
30 | QVQLEESGGRLVQAGGSLRLRCAASGLMYTRYVMGWYRQAPGKERELVAVISSGGSTYYADSVKGRFTISRDNAKNTVYLQMNSLIAEDTAVYYCAAYLRSSHVTYDYWGQGTQVTVSS | high polyreactivity
31 | QVQLVESGGGLVQAGGSLRLSCAASGRTFLPNDMGWYRQAPGKERELVAAITDSGGDTYYADSVKGRFTISRDNAKNTVYLQMNSLKPEDTAVYYCASDYYYYGSYYPVEYWGQGTQVTVSS | high polyreactivity
32 | QVQLVESGGGLVQAGGSLRLSCAASGSIFTFYAMGWYRQAPGKERELVAAISSSGTSTYYADSVQGRFTISRDNAKNTVYLQMNSLKPEDTAVYYCNVPMPPAKAEYGYWGQGTQVTVSS | high polyreactivity
33 | QVQLVESGGGIVQAGGSLRLSCAASGSIFRYNVMGLYRQAPGKERELVAGITRIGGSTYYADSVKGRFTISRDNAKNTVYLQMNSLKQEDTAVYYCGTARFSYPGPFGWLDEYYYWGQGTQVTVSS | low polyreactivity
34 | QVQIVESGGGLVQAGGSLRLSCAASGNTFYVNVMGWYRQAPGKEREFVAAISTRGVSTSYADSVKGRFTISRDNAKNTVYLQMNSLKPEDTAVYYCAASFRRPQPKGTTYGYWGQGTQVTVSS | high polyreactivity
35 | QVQLVESGGGLVQAGGSLRLSCAASGSIFATNAMGWYRQAPGKERELVAAISRSGASTYYADSVKGRFTISRDNAKNTVYLQMNSLKPEDPAVYYCNKVLYRDAYHSYGFDYWGQGTQVTVSS | high polyreactivity
36 | QVQLAESGGGLVQAGGSLRLSCAASGSNFSPNAMGWYRQAPGKERELVAAITAGARTNYADSVKGRFTISRDNSKNTFYLQMNSLKPEDTAVYYCNAESYYDYNYWGQGTQVTVSS | low polyreactivity
37 | QVQLVESGGGLVQAGGSLRLSCAASGYILRPYSKVWYRQSPGKERELLASISRSSGNTFYADSVKGRFTISRDNAKNSVYLEMNSLKPDDSAVYYCAKDRSQRDLVYFPRVIYRMDYWGQGTQVNVSS | high polyreactivity
38 | QVQLVESGGGLVQAGGSLRLSCAASGSIFWQNAMGWYRQAPGKERELVARITSGGSTNYADSVKGRFTISRDNAKNTFYLQMNSLKPEDTGVYYCNRVRYRSYFAYYYWGQGTQVTVSS | high polyreactivity
39 | QVQLVESGGGLVQAGGSLRLSCAASGRTLTKYVMGWYRQAPGKEREFVAAISSSGDSTYYADSVKGRFTISRDNAKNPVYLQMNSLKQEDTAVYYCAKYDRNTYCYWGQCTQVTVSS | low polyreactivity
40 | QVQLGESGGGLVQAGGSLRLSCAASGRTLSYYARGWYRHAPGKEREFVAAITGSGGSTYYADSVKGRFTISRDNAKNTVYLQMHSLQPADTAVYYCNAKGLGVFTVEYYYWGQGTQVTVSS | low polyreactivity
41 | QVQLVESGGGLVQAGGSLRLSCAASGRIFQEYAMGWYRQAPGKERELVAAISSGGGSTYYADSVKGRFTISRDNAKNTVYLQMNSLKPEDTAVYYCAARVYIAYISMDHWGQGTQVTVSS | low polyreactivity
42 | QVQLVESGGGLVQAGGSLRLSCAASGSTFEIYAMGWYRQAPGKERELVAAIDFSGGSTYYADSVKGRFTISRDNAKKTLYLQMNSLKPEDTAVYYCAVDSASDTIYDYWGQGTQVTVSS | low polyreactivity
43 | QQQLVESGGGVVQAGGSLRLSCAASGSTFSGYAMGWYIPAPGKERELVAAIRKSGGSKYYADSVKGRFTISRDNAKNTVYLQMNSLKPEDTAVYYCNARRDLQYSQYKRYGYWGQGTQVNVSS | low polyreactivity

— the nanobody polyreactivity screen of Harvey et al. (2022)
